Laboratory results as given in patent US6391302 (LUDWIG INSTITUTE FOR CANCER RESEARCH, dated 2002).
Residue numbers refer to the chain shown, from its start.

T1: human FB5 (endosialin) cancer antigen (human, UniProt Q9HCU0 18-757)
T1 construct: whole, on cells; The antigen is presented on LA1-5s cells; also called FB5 antigen
T1 sequence (looked up): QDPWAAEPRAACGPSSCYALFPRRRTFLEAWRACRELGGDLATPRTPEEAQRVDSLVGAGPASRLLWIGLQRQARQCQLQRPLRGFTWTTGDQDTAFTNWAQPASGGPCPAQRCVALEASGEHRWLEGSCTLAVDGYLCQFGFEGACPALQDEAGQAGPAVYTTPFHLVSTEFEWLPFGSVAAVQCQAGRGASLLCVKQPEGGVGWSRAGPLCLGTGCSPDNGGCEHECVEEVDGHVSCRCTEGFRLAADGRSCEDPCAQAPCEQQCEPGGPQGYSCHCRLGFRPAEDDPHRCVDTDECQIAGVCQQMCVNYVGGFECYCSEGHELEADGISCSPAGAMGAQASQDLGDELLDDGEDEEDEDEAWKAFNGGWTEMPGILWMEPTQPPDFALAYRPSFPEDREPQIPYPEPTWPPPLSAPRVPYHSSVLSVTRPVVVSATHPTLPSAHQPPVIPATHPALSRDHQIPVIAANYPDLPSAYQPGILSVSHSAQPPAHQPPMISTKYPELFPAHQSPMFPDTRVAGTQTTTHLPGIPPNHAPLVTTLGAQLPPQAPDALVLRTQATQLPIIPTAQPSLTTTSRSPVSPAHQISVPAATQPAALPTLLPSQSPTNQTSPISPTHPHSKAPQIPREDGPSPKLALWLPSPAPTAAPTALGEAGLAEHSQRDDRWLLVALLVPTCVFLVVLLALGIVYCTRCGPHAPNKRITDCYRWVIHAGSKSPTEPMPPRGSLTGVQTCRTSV

B1: FB5HuVHK/HuVK (antibody, V domains shown)
VH: QVQLQESGPGLVRPSQTLSLTCTASGYTFTDYVIHWVKQPPGRGLEWIGYINPYDDDTTYNQKFKGRVTMLVDTSSNTAYLRLSSVTAEDTAVYYCARRGNSYDGYFDYSMDYWGQGSLVTVSS
VL: DIQMTQSPSSLSASVGDRVTITCRASQNVGTAVAWLQQTPGKAPKLLIYSASNRYTGVPSRFSGSGSGTDYTFTISSLQPEDIATYYCQQYTNYPMYTFGQGTKVQIK
B2: FB5HuVH/HuVK (antibody, V domains shown)
VH: B1 VH with K38R
VL: B1 VL
notes: also called reshaped antibody FB5HuVH/HuVK
B3: FB5HuVHK,QA,LT,VK/HuVK (antibody, V domains shown)
VH: B1 VH with R67Q, V68A, M70L, L71T, D73V, T74K
VL: B1 VL

What follows are molecules tested against T1, human FB5 (endosialin) cancer antigen (assay: mixed hemadsorption (MHA) rosetting assay on LA1-5s human neuroblastoma cells, protein A-conjugated red blood cells as indicator).

Molecule	Concentration of antibody for 50% rosetting [ng/mL]
murine monoclonal antibody mAbFB5	3
chimeric FB5 antibody	3
B1	16
B2	80
B3	16
